Assay results as given in PMC4942676.
pKd: −log10 of the molar value.

How the values were obtained:
[1] = molecular target: FLAG-tagged construct containing the Omp25 TMD, translated in the PURE system; experiment: co-sedimentation; Omp25 TMD construct translated in the PURE system with 35S-methionine and 15 uM recombinant chaperone; sucrose gradient, autoradiography
[2] = molecular target: UBQLN UBL domain UBL (Homo sapiens) (UniProt Q9UMX0); conditions: cited from earlier work
[3] = molecular target: UBQLN1 loaded with Ub-Omp25 (UniProt Q9UMX0); experiment: pull-down; client (Omp25 or Ub-Omp25) translated in lysate lacking ubiquitin, UbcH5 and the major TMD-binding factors, supplemented with 40 nM recombinant FLAG-tagged UBQLN1 variant; affinity purified via the FLAG tag; autoradiography for the client, immunoblot for proteasome subunit α7

Question: Which stoichiometry N [1] does the source give for “recombinant UBQLN1 (FLAG-tagged) (from UniProt Q9UMX0 1-589) (natural protein)” here?
Answer: Its stoichiometry N is 1.

Question: With “UBQLN UBA domain UBA (from UniProt Q9UMX0)” as the substance, how does the pKd [2] read?
Answer: Its pKd is 4.10.

Question: With “proteasome, endogenous in rabbit reticulocyte lysate (from UniProt G1SZ14 1-326) (complex)” as the substance, how does the fold proteasome association relative to UBQLN1 loaded with Omp25 [3] read?
Answer: Its fold proteasome association relative to UBQLN1 loaded with Omp25 is 2 to 3 fold.
